# Legend:
# hCD3 (human CD3) = hCD3 (human CD3) (Homo sapiens, UniProt P07766); experiment: Kinetics and affinity of hCD3/human IgG interactions by SPR (Bio-Rad Proteon XPR36); format: binding; conditions: 37° C.
# Description: All experiments were performed on a Bio-Rad Proteon XPR36 surface Plasmon resonance biosensor (Bio-Rad, Hercules, Calif.). An array of anti-CD3 antibodies was prepared using an amine-coupling method on a Bio-Rad GLC Sensor Chip similar to that described in Abdiche, et al., Anal. Biochem. 411, 139-151 (2011). The analysis temperature for the immobilization was 25° C. and the running buffer was HBS-T+(10 mM HEPES, 150 mM NaCl, 0.05% Tween-20, pH 7.4). Channels were activated in the analyte (horizontal) direction by injecting a mixture of 1 mM ECD and 0.25 mM NHS for 3 minutes at a flow rate of 30 μL/min. IgGs were immobilized on the activated spots by injecting them in the ligand (vertical) direction at 20 μg/mL in 10 mM Acetate pH 4.5 buffer for 1.5 minutes at […]. The activated surfaces were blocked by injecting 1M ethanolamine, pH 8.5 in the analyte direction for 3 minutes at 30 μL/min.
# The analysis temperature for the hCD3 binding analysis was 37° C. or 25° C. in a running buffer of HBS-T+, supplemented with 1 mg/mL BSA. A kinetic titration method was employed for the interaction analysis as described in Abdiche, et al. The hCD3 (human CD3) analyte was injected in the analyte direction using a series of injections from low to high concentration. The concentrations used were 0.08 nM, 0.4 nM, 2 nM, 10 nM and 50 nM (a 5-membered series, with a 5-fold dilution factor and top concentration of 50 nM). The association time for a given analyte dilution was two minutes. Immediately after the 50 nM hCD3 injection, dissociation was monitored for 2 hours. Prior to the hCD3 analyte injections, buffer was injected 5 times using the same association and dissociation times at the hCD3 analyte cycles to prepare a buffer blank sensorgram for double-referencing purposes (double referencing as described in Myszka, J. Mol. Recognit. 12, 279-284 (1999).
# The sensorgrams were double-referenced and fit to a 1:1 Langmuir with mass transport kinetic titration model in BIAevaluation Software version 4.1.1 (GE Lifesciences, Piscataway, N.J.).
# CD3 = CD3 (Homo sapiens, UniProt P07766); experiment: Biacore kinetics of anti-CD3 hIgG2dA bispecifics at 37° C.; format: binding
# CD3, sequence (P07766 23-126 limits assumed): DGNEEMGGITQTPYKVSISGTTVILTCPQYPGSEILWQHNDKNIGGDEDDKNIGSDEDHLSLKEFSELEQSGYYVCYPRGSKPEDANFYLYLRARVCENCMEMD
# CD3, sequence (P04234 22-105 partner limits assumed): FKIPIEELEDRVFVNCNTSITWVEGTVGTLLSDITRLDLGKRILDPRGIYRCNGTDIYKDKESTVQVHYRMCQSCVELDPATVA
# hCD3 (human CD3), sequence (P07766 23-126 limits assumed): as the sequence (P07766 23-126 limits assumed) above
# hCD3 (human CD3), sequence (P04234 22-105 partner limits assumed): as the sequence (P04234 22-105 partner limits assumed) above
ka huCD3ed @37° C. (hCD3 (human CD3)),kd huCD3ed @37° C. (hCD3 (human CD3)),Kd (CD3),ka (CD3),kd (CD3),Molecule
380000 M⁻¹ s⁻¹,0.014 s⁻¹,–,–,–,"h2B4-VH-wt VL_TK: anti-CD3 antibody (antibody, V domains shown) VH: EVQLVESGGGLVQPGGSLRLSCAASGFTFSDYYMTWVRQAPGKGLEWVAFIRNRARGYTSDHNASVKGRFTISRDNAKNSLYLQMNSLRAEDTAVYYCARDRPSYYVLDYWGQGTTVTVSS VL: DIVMTQSPDSLAVSLGERATINCKSSQSLFNVRSRKNYLAWYQQKPGQPPKLLISWASTRESGVPDRFSGSGSGTDFTLTISSLQAEDVAVYYCKQSYDLFTFGSGTKLEIK"
240000 M⁻¹ s⁻¹,0.021 s⁻¹,–,–,–,"h2B4-VH-yads VL_TK: anti-CD3 antibody (antibody, V domains shown) VH: EVQLVESGGGLVQPGGSLRLSCAASGFTFSDYYMTWVRQAPGKGLEWVAFIRNRARGYTSDYADSVKGRFTISRDNAKNSLYLQMNSLRAEDTAVYYCARDRPSYYVLDYWGQGTTVTVSS VL: DIVMTQSPDSLAVSLGERATINCKSSQSLFNVRSRKNYLAWYQQKPGQPPKLLISWASTRESGVPDRFSGSGSGTDFTLTISSLQAEDVAVYYCKQSYDLFTFGSGTKLEIK"
–,–,31 nM,687000 M⁻¹ s⁻¹,0.0213 s⁻¹,"h2B4-TK_Ep: anti-EpCam/CD3 bispecific, human IgG2dA, anti-CD3 arm h2B4-TK (h2B4-VH-wt VL_TK) (antibody, V domains shown, left off: another chain or arm of the molecule; a dimerising Fc or GST; small tags and cut ends) VH: EVQLVESGGGLVQPGGSLRLSCAASGFTFSDYYMTWVRQAPGKGLEWVAFIRNRARGYTSDHNASVKGRFTISRDNAKNSLYLQMNSLRAEDTAVYYCARDRPSYYVLDYWGQGTTVTVSS VL: DIVMTQSPDSLAVSLGERATINCKSSQSLFNVRSRKNYLAWYQQKPGQPPKLLISWASTRESGVPDRFSGSGSGTDFTLTISSLQAEDVAVYYCKQSYDLFTFGSGTKLEIK"
230000 M⁻¹ s⁻¹,0.023 s⁻¹,–,–,–,"h2B4-VH-yaes VL_TK: anti-CD3 antibody (antibody, V domains shown) VH: EVQLVESGGGLVQPGGSLRLSCAASGFTFSDYYMTWVRQAPGKGLEWVAFIRNRARGYTSDYAESVKGRFTISRDNAKNSLYLQMNSLRAEDTAVYYCARDRPSYYVLDYWGQGTTVTVSS VL: DIVMTQSPDSLAVSLGERATINCKSSQSLFNVRSRKNYLAWYQQKPGQPPKLLISWASTRESGVPDRFSGSGSGTDFTLTISSLQAEDVAVYYCKQSYDLFTFGSGTKLEIK"
390000 M⁻¹ s⁻¹,0.016 s⁻¹,–,–,–,"h2B4-VH-hnps VL_TK: anti-CD3 antibody (antibody, V domains shown) VH: EVQLVESGGGLVQPGGSLRLSCAASGFTFSDYYMTWVRQAPGKGLEWVAFIRNRARGYTSDHNPSVKGRFTISRDNAKNSLYLQMNSLRAEDTAVYYCARDRPSYYVLDYWGQGTTVTVSS VL: DIVMTQSPDSLAVSLGERATINCKSSQSLFNVRSRKNYLAWYQQKPGQPPKLLISWASTRESGVPDRFSGSGSGTDFTLTISSLQAEDVAVYYCKQSYDLFTFGSGTKLEIK"
–,–,54.4 nM,474000 M⁻¹ s⁻¹,0.0258 s⁻¹,"h2B4-yaesTK_Ep: anti-EpCam/CD3 bispecific, human IgG2dA, anti-CD3 arm h2B4-yaesTK (h2B4-VH-yaes VL_TK) (antibody, V domains shown, left off: another chain or arm of the molecule; a dimerising Fc or GST; small tags and cut ends) VH: EVQLVESGGGLVQPGGSLRLSCAASGFTFSDYYMTWVRQAPGKGLEWVAFIRNRARGYTSDYAESVKGRFTISRDNAKNSLYLQMNSLRAEDTAVYYCARDRPSYYVLDYWGQGTTVTVSS VL: DIVMTQSPDSLAVSLGERATINCKSSQSLFNVRSRKNYLAWYQQKPGQPPKLLISWASTRESGVPDRFSGSGSGTDFTLTISSLQAEDVAVYYCKQSYDLFTFGSGTKLEIK"
–,–,31.2 nM,754000 M⁻¹ s⁻¹,0.0235 s⁻¹,"h2B4-hnpsTK_Ep: anti-EpCam/CD3 bispecific, human IgG2dA, anti-CD3 arm h2B4-hnpsTK (h2B4-VH-hnps VL_TK) (antibody, V domains shown, left off: another chain or arm of the molecule; a dimerising Fc or GST; small tags and cut ends) VH: EVQLVESGGGLVQPGGSLRLSCAASGFTFSDYYMTWVRQAPGKGLEWVAFIRNRARGYTSDHNPSVKGRFTISRDNAKNSLYLQMNSLRAEDTAVYYCARDRPSYYVLDYWGQGTTVTVSS VL: DIVMTQSPDSLAVSLGERATINCKSSQSLFNVRSRKNYLAWYQQKPGQPPKLLISWASTRESGVPDRFSGSGSGTDFTLTISSLQAEDVAVYYCKQSYDLFTFGSGTKLEIK"
–,–,25.1 nM,1.2e+06 M⁻¹ s⁻¹,0.0301 s⁻¹,"h25A8-C8_Ep (antibody, V domains shown, left off: another chain or arm of the molecule; a dimerising Fc or GST; small tags and cut ends) VH: EVQLVESGGGLVKPGGSLRLSCAASGFTFNTYAMNWVRQAPGKGLEWVGRIRSKINNYATYYAESVKGRFTISRDDSKNTLYLQMNSLKTEDTAVYYCVRHETLRSGISWFASWGQGTLVTVSS VL: QAVVTQEPSLTVSPGGTVTLTCRSSTGAVTTSNYANWVQQKPGQAPRGLIGGTNTRAPGTPARFSGSLLGGKAALTLSGAQPEDEAEYYCVLWYNNHWVFGGGTKLTVL"
–,–,18.3 nM,1.2e+06 M⁻¹ s⁻¹,0.0219 s⁻¹,"h25A8-B13_Ep: anti-EpCam/CD3 bispecific, human IgG2dA, anti-CD3 arm h25A8-B13 (antibody, V domains shown, left off: another chain or arm of the molecule; a dimerising Fc or GST; small tags and cut ends, anti-EpCam/CD3 bispecific, human IgG2dA, anti-CD3 arm h25A8-B13) VH: EVQLVESGGGLVKPGGSLRLSCAASGFTFSTYAMNWVRQAPGKGLEWVGRIRSKINNYATYYAESVKGRFTISRDDSKNTLYLQMNSLKTEDTAVYYCVRHETLRSGISWFASWGQGTLVTVSS VL: QAVVTQEPSLTVSPGGTVTLTCRTSTGAVTTSNYANWVQQKPGQAPRGLIGGTNTRAPGTPARFSGSLLGGKAALTLSGAQPEDEAEYYCVLWYNNHWVFGGGTKLTVL"
–,–,21 nM,1.15e+06 M⁻¹ s⁻¹,0.0241 s⁻¹,"h25A8-B12_Ep: anti-EpCam/CD3 bispecific, human IgG2dA, anti-CD3 arm h25A8-B12 (antibody, V domains shown, left off: another chain or arm of the molecule; a dimerising Fc or GST; small tags and cut ends, anti-EpCam/CD3 bispecific, human IgG2dA, anti-CD3 arm h25A8-B12) VH: EVQLVESGGGLVKPGGSLRLSCAASGFTFSTYAMNWVRQAPGKGLEWVGRIRSKINNYATYYAESVKGRFTISRDDSKNTLYLQMNSLKTEDTAVYYCVRHETLRSGISWFASWGQGTLVTVSS VL: QAVVTQEPSLTVSPGGTVTLTCRASTGAVTTSNYANWVQQKPGQAPRGLIGGTNTRAPGTPARFSGSLLGGKAALTLSGAQPEDEAEYYCVLWYNNHWVFGGGTKLTVL"
–,–,18.7 nM,1.19e+06 M⁻¹ s⁻¹,0.0222 s⁻¹,"h25A8-B8_Ep (antibody, V domains shown, left off: another chain or arm of the molecule; a dimerising Fc or GST; small tags and cut ends) VH: EVQLVESGGGLVKPGGSLRLSCAASGFTFSTYAMNWVRQAPGKGLEWVGRIRSKINNYATYYAESVKGRFTISRDDSKNTLYLQMNSLKTEDTAVYYCVRHETLRSGISWFASWGQGTLVTVSS VL: QAVVTQEPSLTVSPGGTVTLTCRSSTGAVTTSNYANWVQQKPGQAPRGLIGGTNTRAPGTPARFSGSLLGGKAALTLSGAQPEDEAEYYCVLWYNNHWVFGGGTKLTVL"
–,–,45 nM,1.29e+06 M⁻¹ s⁻¹,0.0581 s⁻¹,"h25A8-B5_Ep (antibody, V domains shown, left off: another chain or arm of the molecule; a dimerising Fc or GST; small tags and cut ends) VH: EVQLVESGGGLVKPGGSLRLSCAASGFTFSTYAMNWVRQAPGKGLEWVGRIRSKINNYATYYAESVKGRFTISRDDSKNTLYLQMNSLKTEDTAVYYCVRHETLRSGISWFASWGQGTLVTVSS VL: QAVVTQEPSLTVSPGGTVTLTCRSSTGAVTTSNYANWVQQKPGQAPRGLIGGTNTRAPGTPARFSGSLLGGKAALTLSGAQPEDEAEYYCVLWYNNYWVFGGGTKLTVL"
